Test results reported in patent EP4624486A1 (Guangdong Raynovent Biotech Co., Ltd., dated 2025).
Bridge positions count the residues as written; N and C are the ends. Square brackets hold non-standard residues; d marks the D form. Ends that are not written are not given here. stapled body chem0195 = not defined here; stapled body chem0208 = not defined here; stapled body chem0209 = not defined here; stapled body chem0212 = not defined here; stapled body chem0214 = not defined here; stapled body chem0215 = not defined here; αMeL = CC(C)C[C@](C)(N)C(=O)O; Orn = NCCC[C@H](N)C(=O)O; Aib = CC(C)(N)C(=O)O

T1: GIP receptor (GIPR) (UniProt P48546 22-466, limits assumed)
T1 sequence (looked up): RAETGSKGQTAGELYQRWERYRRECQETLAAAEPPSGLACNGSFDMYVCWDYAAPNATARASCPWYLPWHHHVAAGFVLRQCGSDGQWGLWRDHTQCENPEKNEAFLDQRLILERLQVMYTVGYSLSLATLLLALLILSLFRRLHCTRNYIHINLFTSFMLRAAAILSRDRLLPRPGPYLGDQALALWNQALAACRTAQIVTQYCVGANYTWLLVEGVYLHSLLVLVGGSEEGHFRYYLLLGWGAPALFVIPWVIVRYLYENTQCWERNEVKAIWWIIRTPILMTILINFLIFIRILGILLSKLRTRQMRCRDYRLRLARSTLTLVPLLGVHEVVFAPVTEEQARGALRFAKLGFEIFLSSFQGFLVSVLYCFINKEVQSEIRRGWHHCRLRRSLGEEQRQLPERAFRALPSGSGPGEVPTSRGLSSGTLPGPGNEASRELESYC

B1: Example 2 (peptide)
peptide: Y[Aib]QGTFTSDYSI[αMeL]LDKKAQ[Aib]AFIKWLLKGGPSSGAPPPS-NH2
modifications: linker 24-28 via stapled body chem0195; reading uncertain; also: further groups not given here
B2: Example 4 (peptide)
peptide: H[Aib]HGTFTSDYSIYLEKKYA[Aib]EFVKWLLKGGPSSGAPPPS-NH2
modifications: bridge 24-28; not fully specified (bridges); also: stapled body (lipidated) structure only in drawing chem0197
B3: Example 5 (peptide)
peptide: H[Aib]HGTFTSDYSIYLEKKYA[Aib]KFVQWLLEGGPSSGAPPPS-NH2
modifications: bridge 17-21; not fully specified (bridges); also: stapled body (lipidated) structure only in drawing chem0198
B4: Example 6 (peptide)
peptide: Y[Aib]QGTFTSDYSI[αMeL]LDKKAQ[Aib]KFIEYLLEGGPSSGAPPPS-NH2
modifications: bridge 17-21; also: stapled body between K17 and K21 is given only as a drawing, not in text
B5: Example 9 (peptide)
peptide: Y[Aib]QGTFTSDYSI[αMeL]LDKKAQ[Aib]KFIEFLLEGGPSSGAPPPS-NH2
modifications: bridge 17-21; also: stapled body between K17 and K21 is given only as a drawing, not in text
B6: Example 10 (peptide)
peptide: Y[Aib]QGTFTSDYSI[αMeL]LDKKAQ[Aib]EFIEYLLEGGPSSGAPPPS-NH2
modifications: linker 17-21 via stapled body chem0208; reading uncertain; also: further groups not given here
B7: Example 11 (peptide)
peptide: Y[Aib]QGTFTSDYSI[αMeL]LDKKAQ[Aib]AFIKYLLEGGPSSGAPPPS-NH2
modifications: linker 17-24 via stapled body chem0209; reading uncertain; also: further groups not given here
B8: Example 14 (peptide)
peptide: Y[Aib]QGTFTSDYSI[αMeL]LDKKAQ[Aib]KFIEYLLKGGPSSGAPPPS-NH2
modifications: linker 21-28 via stapled body chem0212; reading uncertain; also: further groups not given here
B9: Example 16 (peptide)
peptide: Y[Aib]QGTFTSDYSI[αMeL]LDKKAQ[Aib][dK]FIEYLLEGGPSSGAPPPS-NH2
modifications: linker 17-21 via stapled body chem0214; reading uncertain; also: further groups not given here
B10: Example 17 (peptide)
peptide: Y[Aib]QGTFTSDYSI[αMeL]LDKKAQ[Aib][Orn]FIEYLLEGGPSSGAPPPS-NH2
modifications: linker 17-21 via stapled body chem0215; reading uncertain; also: further groups not given here
B11: Example 26 (peptide)
peptide: Y[Aib]QGTFTSDYSI[αMeL]LDKKAQ[Aib]KFIEFLLKGGPSSGAPPPS-NH2
modifications: linker 21-28 via Ida, Lys, Lys, γGlu, C20 diacid; also: further groups not given here
B12: Example 28 (peptide)
peptide: Y[Aib]QGTFTSDYSK[αMeL]LDKKAQ[Aib]AFIEFLLEGGPSSGAPPPS-NH2
modifications: linker 12-16 via Ida, Lys, Lys, γGlu, C20 diacid; also: further groups not given here
B13: Example 43 (peptide)
peptide: Y[Aib]QGTFTSDYSI[αMeL]KDKKAQ[Aib]AFIEYLLEGGPSSGAPPPS-NH2
modifications: linker 14-17 via (2-2-oxoethyl)‑glycine, AEEA, γGlu, 19‑phosphonononadecanoic acid

Key:
Experiment in all cases: cell-based or functional assay
[1] = biological target: T1, GIP receptor (GIPR)
[2] = biological target: GCG receptor (GCGR) (UniProt P47871 26-477, limits assumed)
GCG receptor (GCGR), sequence (P47871 26-477 limits assumed): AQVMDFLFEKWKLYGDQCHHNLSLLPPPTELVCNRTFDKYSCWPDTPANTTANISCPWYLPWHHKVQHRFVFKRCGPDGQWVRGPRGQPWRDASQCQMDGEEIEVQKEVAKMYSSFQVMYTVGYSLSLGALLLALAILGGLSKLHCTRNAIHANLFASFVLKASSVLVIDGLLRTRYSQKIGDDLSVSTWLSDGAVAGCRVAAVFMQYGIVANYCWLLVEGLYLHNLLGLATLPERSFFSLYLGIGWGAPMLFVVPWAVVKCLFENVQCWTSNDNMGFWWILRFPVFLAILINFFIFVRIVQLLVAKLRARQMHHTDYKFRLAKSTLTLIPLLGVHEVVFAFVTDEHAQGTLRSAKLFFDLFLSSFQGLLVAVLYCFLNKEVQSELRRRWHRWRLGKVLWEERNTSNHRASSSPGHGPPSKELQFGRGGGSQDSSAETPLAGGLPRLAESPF

[3] = biological target: GLP-1 receptor (GLP-1R) (UniProt P43220 24-463, limits assumed)

Binder	GIP-1 EC50 (nM); cAMP, agonistic activity [1]	GCG EC50 (nM); cAMP, agonistic activity [2]	GLP-1 EC50 (nM); cAMP, agonistic activity [3]
B1	0.001 nM	0.279 nM	0.009 nM
Y[Aib]QGTFTSDYSI[αMeL]LDKKAQ[Aib]AFIEKLLEGGPSSGAPPPS-NH2 (linker 25-28 via Lys, AEEA, γGlu, C20 diacid) [Example 3]	0.003 nM	1.68 nM	0.025 nM
B2	0.016 nM	0.143 nM	0.023 nM
B3	0.007 nM	0.012 nM	0.029 nM
B4	0.0005 nM	0.017 nM	0.005 nM
Y[Aib]QGTFTSDYSI[αMeL]LDKKAQ[Aib]KFIEYLLEGGPSSGAPPPS-NH2 (bridge 17-21; also: further groups not given here) [Example 7]	0.0003 nM	0.061 nM	0.005 nM
Y[Aib]QGTFTSDYSI[αMeL]LDKKAQ[Aib]KFIEYLLEGGPSSGAPPPS-NH2 (bridge 17-21) [Example 8]	0.0004 nM	0.012 nM	0.004 nM
B5	0.0004 nM	0.022 nM	0.005 nM
B6	0.0003 nM	0.057 nM	0.009 nM
B7	0.0003 nM	0.129 nM	0.006 nM
Y[Aib]QGTFTSDYSI[αMeL]LDKKAQ[Aib]KFIEYLLEGGPSSGAPPPS-NH2 (linker 17-21 via Glu, AEEA, AEEA, γGlu, C20 diacid) [Example 12]	0.0001 nM	0.007 nM	0.002 nM
B8	0.0001 nM	0.028 nM	0.001 nM
B9	0.0001 nM	0.042 nM	0.002 nM
B10	0.0001 nM	0.016 nM	0.001 nM
Y[Aib]QGTFTSDYSI[αMeL]LDKKAQ[Aib]AFIKYLLEGGPSSGAPPPS-NH2 (linker 17-24 via Ida, Lys, Lys, γGlu, C20 diacid) [Example 18]	0.0004 nM	0.052 nM	0.008 nM
Y[Aib]QGTFTSDYSI[αMeL]KDKKAQ[Aib]AFIEYLLEGGPSSGAPPPS-NH2 (linker 14-17 via (2-2-oxoethyl)‑glycine, AEEA, γGlu, C20 diacid) [Example 21]	0.0008 nM	0.039 nM	0.02 nM
Y[Aib]QGTFTSDYSI[αMeL]LDKKAQ[Aib]KFIEFLLEGGPSSGAPPPS-NH2 (linker 17-21 via Ida, Lys, Lys, γGlu, C20 diacid) [Example 22]	0.0004 nM	0.034 nM	0.009 nM
Y[Aib]QGTFTSDYSI[αMeL]LDKKAQ[Aib]KFIEFLIEGGPSSGAPPPS-NH2 (linker 17-21 via Ida, Lys, Lys, γGlu, C20 diacid) [Example 23]	0.0004 nM	0.096 nM	0.007 nM
B11	0.0005 nM	0.11 nM	0.014 nM
B12	0.0008 nM	0.11 nM	0.011 nM
Y[Aib]QGTFTSDYSI[αMeL]LDKKAQ[Aib]KFIEYLLEGGPSSGAPPPS-NH2 (linker 17-21 via (2-2-oxoethyl)‑glycine, AEEA, AEEA, γGlu, C20 diacid) [Example 1]	0.001 nM	0.024 nM	0.009 nM
Y[Aib]QGTFTSDYSI[αMeL]KDKKAQ[Aib]AFIEYLLKGGPSSGAPPPS-NH2 (linker 14-17 via (2-2-oxoethyl)‑glycine, AEEA, γGlu, C20 diacid) [Example 38]	0.0002 nM	0.018 nM	0.002 nM
B13		0.042 nM	
